Reference: patent US20130053541A1, “METHODS FOR DISCOVERING MOLECULES THAT BIND TO PROTEINS” (LYNNTECH, INC., priority 2011, published 2013)
Where no end group is shown, it is not given here.

molecular target: T1, native human ESRRG protein (Estrogen-receptor related receptor gamma) (human, UniProt P62508 229-458, limits assumed); assay: custom peptide microarray density chip
T1 construct: the screened protein is called 'native human ESRRG protein'; also called ESSRG; ERRγ
T1 sequence (looked up): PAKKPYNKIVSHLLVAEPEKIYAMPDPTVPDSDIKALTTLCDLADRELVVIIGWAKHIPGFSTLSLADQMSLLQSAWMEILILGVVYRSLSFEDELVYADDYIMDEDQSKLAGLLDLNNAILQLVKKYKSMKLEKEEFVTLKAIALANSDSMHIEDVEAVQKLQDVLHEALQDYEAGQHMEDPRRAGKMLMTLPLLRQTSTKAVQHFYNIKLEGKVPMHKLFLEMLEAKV

| Binder | Kd [nM] |
| --- | --- |
| Ac-FWKGHFDF | 9.16 |
| Ac-AANMFLLL | 29 |
| Ac-NIKVNANN | 17 |
| Ac-LLHSSKSQ | 28.3 |
| Ac-LLHKSKSQ | 28.5 |
| Ac-LYLLKHHP | 29.1 |
| Ac-NSLRKHLL | 24.4 |
| Ac-NSLKKHLL | 18.3 |
| Ac-NSLLKHLL | 20.7 |
| Ac-VQYNYLQR | 19.3 |
| Ac-SLLFHLLK | 26.7 |
| Ac-NIKLFANN | 24.7 |
| Ac-VLLHYGLY | 27.4 |
| Ac-IFSEIRVY | 16.1 |
| Ac-IFSKIRVY | 15.6 |
| Ac-IFSEMRVY | 7.88 |
| Ac-ANNIRLLH | 18.9 |
| Ac-ANNLRLLH | 28.9 |
| Ac-ANNVRLLH | 30.5 |
| Ac-ANNSRLLH | 28.9 |
| Ac-FYNMYLLN | 27.4 |
| Ac-AIRGALMG | 27.4 |
| Ac-AIRLFLMG | 13.8 |
| Ac-AIRLHLMG | 22.4 |
| Ac-NNSWRLHL | 29.4 |
| Ac-QYPKMQRL | 17.9 |
| Ac-IFSYVRVY | 15.4 |
| Ac-IFSYPRVY | 17.5 |
| Ac-IKQNHNNS | 12.5 |
| Ac-IKQDHNNS | 15.7 |

molecular target: T1, native human ESRRG protein …; assay: peptide microarray, Iteration 2; bound ESRRG detected with fluorescent anti-ESRRG mAb
Procedure: (§1) Screening was carried out typically by hybridization of the protein (1 μg/mL) against the array for 1 h at 4° C.; detection of bound protein was carried out using a fluorescently labeled anti-ESRRG mAb. (Direct labeling of ESRRG and alternative detection strategies are equally valid).
Iterative sequence expansion and arraying of 10 highest binding ligands to ESRRG from Iteration 1 was carried out and the new peptide sequences were synthesized on an array and screened against the protein, as described above. In this step, the central 2 amino acids (core) in peptide sequences were maintained unchanged while outlying amino acids (2, 3, 6, and 7) were permuted (using Tier 1 and Tier 3 substitutions) in a ‘cipher’ or ‘combination’ lock approach.

| Binder | Sample B (Probe) Signal | log2 (Sample B/Sample A) |
| --- | --- | --- |
| Ac-FWKGHFDF | 1460 fluorescence intensity units | 2.66 |
| Ac-LYLLKHHP | 2530 fluorescence intensity units | 3.05 |
| Ac-VLLHYGLY | 1800 fluorescence intensity units | 2.37 |
| Ac-FYNMYLLN | 1560 fluorescence intensity units | 2.63 |

molecular target: T1, native human ESRRG protein …; assay: peptide microarray, Iteration 1; bound ESRRG detected with fluorescent anti-ESRRG mAb
Procedure: as §1
Daughter candidate ligands and their new Tier 3 and/or Tier 1 based combinations were synthesized in situ on an addressable peptide microarray and screened against native human ESRRG protein in order to determine sequences that bind to this protein. Bound protein was detected by a fluorescently labeled anti-ESRRG mAb. […] Excess (100×) competing biological matrices (human serum, HSA/BSA or bacterial protein extract) were used as backgrounds to select for specific ligands to the protein. Other competing proteins can be added to background for specificity selection and directed evolution of ligands.

| Binder | Sample B (Probe) Signal | log2 (Sample B/Sample A) |
| --- | --- | --- |
| Ac-AANMFLLL | 1750 fluorescence intensity units | 5.37 |
| Ac-NIKVNANN | 599 fluorescence intensity units | 7.62 |
| Ac-RKALVGKY | 868 fluorescence intensity units | 4.95 |
| Ac-LLHSSKSQ | 819 fluorescence intensity units | 5.4 |
| Ac-LLHKSKSQ | 962 fluorescence intensity units | 4.99 |
| Ac-RKAIFGKY | 818 fluorescence intensity units | 5.11 |
| Ac-NSLRKHLL | 856 fluorescence intensity units | 5.36 |
| Ac-NSLKKHLL | 9220 fluorescence intensity units | 10.8 |
| Ac-NSLLKHLL | 14800 fluorescence intensity units | 7.65 |
| Ac-ANNSRLLH | 1480 fluorescence intensity units | 5.54 |
| Ac-AIRGALMG | 851 fluorescence intensity units | 5.48 |
| Ac-AIRLHLMG | 943 fluorescence intensity units | 5.07 |
| Ac-IKQNHNNS | 794 fluorescence intensity units | 9.63 |
| Ac-IKQDHNNS | 701 fluorescence intensity units | 9.45 |

molecular target: T2, Annexin A5 (Homo sapiens (Human), UniProt P08758 2-320, directly labeled with a fluorescent tag (Cy 5 per paragraph 324; Cy3 per paragraph 57)); assay: peptide density-array chip
T2 construct: also called ANXA5; ANX-A5
T2 sequence: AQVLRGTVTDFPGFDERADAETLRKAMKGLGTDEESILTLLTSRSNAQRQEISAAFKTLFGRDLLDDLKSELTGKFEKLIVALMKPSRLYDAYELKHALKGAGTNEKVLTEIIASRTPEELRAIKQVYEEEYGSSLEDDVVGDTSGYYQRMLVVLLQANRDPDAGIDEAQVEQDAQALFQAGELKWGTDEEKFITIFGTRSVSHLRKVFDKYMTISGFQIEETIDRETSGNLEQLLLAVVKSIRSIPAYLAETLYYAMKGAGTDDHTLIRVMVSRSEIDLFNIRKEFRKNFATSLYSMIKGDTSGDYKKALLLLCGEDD

| Binder | Kd [nM] |
| --- | --- |
| SERYWARY (Array-synthesised 8-mer) | 91.7 |
| SERCWARY (Array-synthesised 8-mer) | 218 |
| SERYTARY (Array-synthesised 8-mer) | 86.9 |
| SERCYARY (Array-synthesised 8-mer) | 301 |
| SERYYARY (Array-synthesised 8-mer) | 361 |
| SERYSARY (Array-synthesised 8-mer) | 82.5 |
| AYLHHAAG (Array-synthesised 8-mer) | 87.6 |
| AYLHYAAG (Array-synthesised 8-mer) | 21.9 |
| AYLMHAAG (Array-synthesised 8-mer) | 63 |
| AYLGYAAG (Array-synthesised 8-mer) | 24.5 |
| AYLVHAAG (Array-synthesised 8-mer) | 92.2 |
| AYLGHAAG (Array-synthesised 8-mer) | 57.5 |
| AYLHGAAG (Array-synthesised 8-mer) | 93.1 |
| SERFFARY (Array-synthesised 8-mer) | 520 |
